Experimental data from patent US20200088729.

Key:
Assay in all cases: SPR
[1] = target: EED (UniProt O75530); settings: HBS-EP+, 3.25 mM MgCl2, 25 C
[2] = target: EZH2 (UniProt Q15910); settings: HBS-EP+, 3.25 mM MgCl2, 25 C
[3] = target: PTBP1 (UniProt P26599); settings: HBS-EP+, 3.25 mM MgCl2, 25 C
[4] = target: SUZ12 (UniProt Q15022); settings: HBS-EP+, 3.25 mM MgCl2, 25 C
[5] = target: T1, HaloTag-DasherGFP-3xLambdaN-V5 (synthetic construct (lambda phage N peptide)) (UniProt P03045); settings: ka 29700 1/Ms, kd 0.0012 1/s; HBS-EP+, 3.25 mM MgCl2, 25 C
T1 sequence: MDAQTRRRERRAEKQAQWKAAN

Chain of SUZ12 (Q15022 whole entry): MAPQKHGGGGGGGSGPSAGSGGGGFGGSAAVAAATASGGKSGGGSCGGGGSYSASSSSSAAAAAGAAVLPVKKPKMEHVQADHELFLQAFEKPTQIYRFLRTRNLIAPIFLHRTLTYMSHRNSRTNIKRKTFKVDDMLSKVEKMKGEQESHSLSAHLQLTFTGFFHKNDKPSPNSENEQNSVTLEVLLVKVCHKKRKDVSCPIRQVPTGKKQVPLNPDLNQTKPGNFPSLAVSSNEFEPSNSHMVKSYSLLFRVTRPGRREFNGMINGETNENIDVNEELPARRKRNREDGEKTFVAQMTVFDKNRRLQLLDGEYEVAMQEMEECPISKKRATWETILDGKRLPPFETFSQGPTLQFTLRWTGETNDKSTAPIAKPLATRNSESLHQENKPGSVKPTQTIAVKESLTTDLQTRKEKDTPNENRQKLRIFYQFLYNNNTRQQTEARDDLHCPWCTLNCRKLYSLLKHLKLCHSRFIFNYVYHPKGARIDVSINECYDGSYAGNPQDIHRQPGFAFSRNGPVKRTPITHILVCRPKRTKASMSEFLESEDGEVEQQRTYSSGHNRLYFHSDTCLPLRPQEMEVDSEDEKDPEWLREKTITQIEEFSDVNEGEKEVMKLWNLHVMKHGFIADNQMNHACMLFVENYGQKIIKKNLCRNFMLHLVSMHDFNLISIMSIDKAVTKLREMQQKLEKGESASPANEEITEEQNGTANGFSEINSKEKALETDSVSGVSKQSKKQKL
Chain of PTBP1 (P26599 whole entry): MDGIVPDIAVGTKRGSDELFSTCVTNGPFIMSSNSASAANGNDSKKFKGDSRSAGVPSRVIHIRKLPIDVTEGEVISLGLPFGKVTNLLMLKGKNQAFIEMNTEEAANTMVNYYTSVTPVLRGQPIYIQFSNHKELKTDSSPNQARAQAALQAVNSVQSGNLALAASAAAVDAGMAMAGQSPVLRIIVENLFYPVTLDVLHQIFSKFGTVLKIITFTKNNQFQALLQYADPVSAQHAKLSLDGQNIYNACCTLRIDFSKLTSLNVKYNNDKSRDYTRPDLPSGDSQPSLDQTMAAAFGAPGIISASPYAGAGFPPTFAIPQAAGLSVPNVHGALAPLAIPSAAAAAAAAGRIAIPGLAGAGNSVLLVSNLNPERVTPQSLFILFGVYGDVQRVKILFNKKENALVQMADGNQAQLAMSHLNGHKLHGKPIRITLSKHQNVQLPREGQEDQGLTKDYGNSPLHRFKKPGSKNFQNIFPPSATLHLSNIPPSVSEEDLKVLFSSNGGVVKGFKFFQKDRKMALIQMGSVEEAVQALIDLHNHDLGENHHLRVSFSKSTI
Chain of EZH2 (Q15910 whole entry): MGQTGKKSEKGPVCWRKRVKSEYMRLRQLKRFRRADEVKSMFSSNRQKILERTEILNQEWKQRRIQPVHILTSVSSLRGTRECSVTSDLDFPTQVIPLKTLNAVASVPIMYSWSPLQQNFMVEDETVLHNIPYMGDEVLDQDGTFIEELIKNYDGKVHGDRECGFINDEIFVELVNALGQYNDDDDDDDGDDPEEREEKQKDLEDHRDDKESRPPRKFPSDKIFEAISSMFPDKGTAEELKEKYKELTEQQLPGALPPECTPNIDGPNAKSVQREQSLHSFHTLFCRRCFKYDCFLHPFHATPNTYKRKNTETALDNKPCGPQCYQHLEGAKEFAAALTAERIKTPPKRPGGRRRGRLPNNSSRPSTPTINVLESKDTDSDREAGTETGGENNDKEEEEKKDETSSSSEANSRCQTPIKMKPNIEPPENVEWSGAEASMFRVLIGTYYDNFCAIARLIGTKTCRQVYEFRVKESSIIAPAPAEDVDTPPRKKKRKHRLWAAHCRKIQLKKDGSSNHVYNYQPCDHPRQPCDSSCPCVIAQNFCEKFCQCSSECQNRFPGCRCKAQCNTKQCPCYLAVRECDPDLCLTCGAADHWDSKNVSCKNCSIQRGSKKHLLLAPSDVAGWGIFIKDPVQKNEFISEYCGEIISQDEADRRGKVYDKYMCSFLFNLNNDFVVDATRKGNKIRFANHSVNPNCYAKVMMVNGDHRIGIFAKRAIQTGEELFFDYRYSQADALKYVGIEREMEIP
Chain of EED (O75530 whole entry): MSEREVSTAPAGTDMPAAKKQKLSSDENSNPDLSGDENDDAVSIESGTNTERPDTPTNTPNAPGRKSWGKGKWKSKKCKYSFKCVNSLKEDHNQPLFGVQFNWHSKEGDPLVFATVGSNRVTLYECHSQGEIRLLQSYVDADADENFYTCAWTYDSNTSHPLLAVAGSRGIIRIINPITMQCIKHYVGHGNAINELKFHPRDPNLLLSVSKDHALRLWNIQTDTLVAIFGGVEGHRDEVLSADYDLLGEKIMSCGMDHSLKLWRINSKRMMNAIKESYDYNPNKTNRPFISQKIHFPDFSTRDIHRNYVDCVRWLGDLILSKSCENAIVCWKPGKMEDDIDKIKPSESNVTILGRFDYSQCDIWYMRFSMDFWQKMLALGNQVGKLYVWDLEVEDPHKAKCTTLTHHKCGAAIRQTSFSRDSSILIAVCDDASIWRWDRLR

Substance	Kd [1] [nM]	Kd [2] [nM]	Kd ([3]; U-value 20) [nM]	Kd [4] [nM]	Kd ([1]; U-value 20) [nM]	Kd [3] [nM]	Kd [5] [nM]	Kd ([4]; U-value 26 flagged with asterisk (poor fit)) [nM]	Kd ([2]; U-value 20) [nM]
MBP RNA (nt 1-240)	1630	58100	8680	1350					
MBP-5xBoxB RNA		66000		96600	2940	104	39.3		
Xist A-repeat RNA	257	56000				261		1790	
Xist E-repeat RNA	1100			60600		59.6			13200
